From publication PMC3280358 (2012)

Assays:
[1] = target: T13 monophosphorylated Rad51 NTD peptide (human, UniProt Q06609, phosphothreonine at T13); experiment: ITC
[2] = target: T13/S14 diphosphorylated Rad51 NTD peptide (human, UniProt Q06609, phosphothreonine at T13; phosphoserine at S14); experiment: ITC

Row | Kd [1] [µM] | Kd [2] [µM] | Binder
1 | 24 |  | Nbs1 (1-382) K160M (domain or fragment) MWKLLPAAGPAGGEPYRLLTGVEYVVGRKNCAILIENDQSISRNHAVLTANFSVTNLSQTDEIPVLTLKDNSKYGTFVNEEKMQNGFSRTLKSGDGITFGVFGSKFRIEYEPLVACSSCLDVSGKTALNQAILQLGGFTVNNWTEECTHLVMVSVKVTIMTICALICGRPIVKPEYFTEFLKAVESKKQPPQIESFYPPLDEPSIGSKNVDLSGRQERKQIFKGKTFIFLNAKQHKKLSSAVVFGGGEARLITEENEEEHNFFLAPGTCVVDTGITNSQTLIPDCQKKWIQSIMDMLQRQGLRPIPEAEIGLAVIFMTTKNYCDPQGHPSTGLKTTTPGPSLSQGVSVDEKLMPSAPVNTTTYVADTESEQADTWDLSERPK
2 |  | 57 | recombinant fragment of Nbs1 (residues 1-382), wild type (domain or fragment) MWKLLPAAGPAGGEPYRLLTGVEYVVGRKNCAILIENDQSISRNHAVLTANFSVTNLSQTDEIPVLTLKDNSKYGTFVNEEKMQNGFSRTLKSGDGITFGVFGSKFRIEYEPLVACSSCLDVSGKTALNQAILQLGGFTVNNWTEECTHLVMVSVKVTIKTICALICGRPIVKPEYFTEFLKAVESKKQPPQIESFYPPLDEPSIGSKNVDLSGRQERKQIFKGKTFIFLNAKQHKKLSSAVVFGGGEARLITEENEEEHNFFLAPGTCVVDTGITNSQTLIPDCQKKWIQSIMDMLQRQGLRPIPEAEIGLAVIFMTTKNYCDPQGHPSTGLKTTTPGPSLSQGVSVDEKLMPSAPVNTTTYVADTESEQADTWDLSERPK
